This is an account of results in patent US20040038249A1, “Inducible expression systems employing PPAR transcriptional activators” (priority 2002, published 2004).

For series [1] the following is noted: form not soluble in water, doses between 5 and 50 mg/kg, for example 30 mg/kg; cited from earlier work.
The subject of series [2] is PPAR Response Elements (PPREs) of wt origin or mutated response sequence (CYP4A6m1). In words: Luciferase reporter cotransfection with PPAR polypeptide and response element plasmids. It counts as cell-based, murine. The following applies: for luciferase activity from response elements: C2C12 murine myoblasts, untreated or treated with BRL49653 PPARγ ligand, panel of wt and mutated response elements. An excerpt:
FIG. 2: Comparison of PPAR polypeptides derived from human PPARγ2 receptor. C2C12 murine myoblasts were cotransfected with a mixture of 3 different plasmids: (i) a plasmid expressing the wt or a mutated hPPARγ2; (ii) a plasmid in which the luc+ gene expression is driven by an inducible target sequence made of multiple PPAR Response Elements (PPREs) of wt origin (CYP4A6, CYP4A1 and HMG) or mutated response sequence (CYP4A6m1=SEQ ID No.: 26, CYP4A6m2=control with sequence 5′ GAACT AGGGCA A AGAACA 3′ (SEQ ID No.: 41), CYP4 μm=SEQ ID No.: 22, and HMGm=SEQ ID No.: 34); and (iii) a plasmid expressing the Renilla luciferase gene as an internal control of transfection efficiency. Measurement of luciferase activity for untreated cells (white bars) or cells treated with the BRL49653 PPARγ ligand (grey bars) is shown for each response element (left Y-axis). The relative induction level (x fold induction) resulting from ligand treatment is also shown (dots and right Y-axis)). Nomenclature for the PPAR amino acid sequences used refers to the first, second, and fifth (bolded) amino acid in the P-box of the Zinc finger domain, where wild type is EGCKG (see box in FIG. 1, panel B).
FIG. 3: DNA-binding specificity of the GSV mutant. C2C12 murine myoblasts were cotransfected with a mixture of 3 different plasmids: (i) a plasmid expressing the wt EGG or the GSV mutated hPPARγ2; (ii) a plasmid in which the luc+ gene expression is driven by an inducible target sequence made of multiple wt PPREs (apoAII, BIF, PPREcon, CYP4A1, CYP4A6, FABP, HMG and MEP cloned in sense (-S) or anti-sense (-AS) orientation) or the mutated response element (noted as “m” sequences in FIG. 6, such as CYP4A6m1=SEQ ID No.: 26); and (iii) a plasmid expressing the Renilla luciferase gene as an internal control of transfection efficiency. Expression levels for untreated cells (white) or cells treated with the BRL49653 PPARγ ligand (grey) are shown in left Y-axis and the relative induction (x fold induction) due to ligand treatment is shown in right Y-axis (dots).
One skilled in the art is familiar with protocols for transfecting plasmids into cell or infecting cells with virus. As an example, murine myoblasts (C2C12; ATCC: CRL1772) and human HEK293 (ATCC: CRL1573) cells are seeded in 24-well plates (7.5×10^4 cells per well) and grown for 24 h in DMEM supplemented with 10% FCS. Cells are washed in DMEM without serum and transfected in triplicate by adding to the cells 0.5 ml of OptiMEM mixed with various quantities of reporter gene (AP or luc) encoding plasmid, supplemented to 500 ng with a carrier plasmid and LipofectAMINE (2 μl for C2C12, 3 μl for HEK293). Five hours later, the medium containing the DNA and the LipofectAMINE is replaced by 1 ml of DMEM supplemented with FCS (2% for C2C12, 10% for HEK293). […]
For orientation: Reporter assays use an easily measured gene product as a stand-in for the process of interest.

Numbering of substitutions follows the chain as printed.

On to `CN(CCOc1ccc(CC2SC(=O)NC2=O)cc1)c1ccccn1` (centres unmarked) [BRL49653, rosiglitazone], for which the plasma concentration entry in series [1] is reported as “about 15 μg/ml”.

B1: GSG: human PPARγ2 with GSCKG substitutions in the P-box (SEQ ID NO: 7) (protein)
chain: MGETLGDSPIDPESDSFTDTLSANISQEMTMVDTEMPFWPTNFGISSVDLSVMEDHSHSFDIKPFTTVDFSSISTPHYEDIPFTRTDPVVADYKYDLKLQEYQSAIKVEPASPPYYSEKTQLYNKPHEEPSNSLMAIECRVCGDKASGFHYGVHACGSCKGFFRRTIRLKLIYDRCDLNCRIHKKSRNKCQYCRFQKCLAVGMSHNAIRFGRMPQAEKEKLLAEISSDIDQLNPESADLRALAKHLYDSYIKSFPLTKAKARAILTGKTTDKSPFVIYDMNSLMMGEDKIKFKHITPLQEQSKEVAIRIFQGCQFRSVEAVQEITEYAKSIPGFVNLDLNDQVTLLKYGVHEIIYTMLASLMNKDGVLISEGQGFMTREFLKSLRKPFGDFMEPKFEFAVKFNALELDDSDLAIFIAVIILSGDRPGLLNVKPIEDIQDNLLQALELQLKLNHPESSQLFAKLLQKMTDLRQIVTEHVQLLQVIKKTETDMSLHPLLQEIYKDLY
modifications: PPAR gamma 2 recombinant polypeptide comprising GSCKG in Zinc finger domain
As to B1, in series [2], the “luciferase activity from response elements” value was “particularly strong and selective”.

B2: GSV: human PPARγ2 with GSCKV substitutions in the P-box of the Zinc finger domain (SEQ ID NO: 8) (protein)
chain: B1 chain with G161V
modifications: PPAR gamma 2 recombinant polypeptide comprising GSCKV in Zinc finger domain
As to B2, in series [2] (C2C12, BRL49653 treatment, CYP4A6m1 response element), the “relative induction level resulting from ligand treatment” value is given as “highest induction levels”. Moreover, the “luciferase activity from response elements” value in series [2] is recorded as “highly selective”; in series [2] (listed as PPARγ2 (GSV)) it was “specific for the CYP4A6m1”.
